Results from the nanobody polyreactivity screen of Harvey et al. (2022).

Experiment: yeast display, Sf9 membrane polyspecificity reagent, FACS + sequencing; frameworks hold sequencing errors
Method in brief: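 Galactose-induced (36–48 hours) yeast carrying a synthetic nanobody display library were exposed to 10% biotinylated, detergent-solubilized Sf9 membrane reagent at 4 °C for 1 hour. FACS followed streptavidin microbead enrichment, using low and high (top ~1%) gates for expression (anti-HA) and reagent binding (streptavidin). Colony PCR, MiSeq 2 × 250 sequencing and CDR-length filtering followed. Labels for polyreactivity reflect the gate of origin.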

## QVQLVESGGGLVQAGGSLRLSCAASGGTFQSNAKGWYRQAPGKERELVASITSRGSSTYYADSVKGRFTISRDNAKNTVYLQMNSLKPEDTAVFYCAKGRSLQMYYKGGIKGGYWGQGTQVTVSS
  polyreactivity (PSR sort gate): low polyreactivity

## QVQLVESGGGLVQAGGSLRLSCAASGGTFRKNAMGWYRQAPGKERELVAAITKSGGSTYYADSVKGRFTISRDNAKNTVYLQMNSLKPEDTAVYYCNTYPGSTQPPYDYWGQGTQVTVSS
  polyreactivity (PSR sort gate): low polyreactivity

## QVQLVESGGGLVQAGGSLRLSCAASGGTFRRYAMGWYRQAPGKEREIVAAITISGGNTYYADSVKGRFTISRDNAKNTVYLQMNSLNPEDTAVYYCAADYAYNKYLSVEYWGQGTQVTVSS
  polyreactivity (PSR sort gate): low polyreactivity

## QVQLVESGGGLVQAGGSLRLSCAASGGTFRRYTMGWYRQAPGKERELVAVISRSGGSTYYADSVKGRFTISRDNAKNTVYLQMNSLKPEDTAVYYCAVVYYNGYDWGQGTQVTVSS
  polyreactivity (PSR sort gate): high polyreactivity

## QVQLVESGGGLVQAGGSLRLSCAASGGTFRSNAMGWYRQAPGKERELVAAITRTGRTNYADSVKGRFTISRDNAKNTVYLQMNSLKPEDTAVYYCNAARYVREYDYWGQGTQVTVSS
  polyreactivity (PSR sort gate): high polyreactivity

## QVQLVESGGGLVQAGGSLRLSCAASGGTFRVYAMGWYRQAPGKERELVAAISSGGSTNYADSVKGRFTISRDNAKNTVYLQMNSLKPEDTAVYYCNAKYRYRFARSPIYYYWGQGTQVTVSS
  polyreactivity (PSR sort gate): low polyreactivity

## QVQLVESGGGLVQAGGSLRLSCAASGGTFRVYAMGWYRQAPGKERELVAAITGRGGSTYYADSVKGRFTISRDNAKNTVYLQMNSLKPEDTAVYYCAAQAYWDFGSVARRDSWGQGTQVTVSS
  polyreactivity (PSR sort gate): low polyreactivity

## QVQLVESGGGLVQAGGSLRLSCAASGGTFSDNAMGWYRQAPGKERELVADIDIGGITYYADSVKGRFTISRDNAKNTVYLQMNSLIPEDTAVYYCAAVTTYYYYDVTDYAYEYYYWRQGTQVTVSS
  polyreactivity (PSR sort gate): low polyreactivity

## QVQLVESGGGLVQAGGSLRLSCAASGGTFSFYTMGWYRQAPGKERELVAAISRSGGRTYYADSVKGRFTISRDHAQNTVYLQMNSLKPEDTAVYYCAAERFSNIYTTMGYWGQGTQVTVSS
  polyreactivity (PSR sort gate): high polyreactivity

## QVQLVESGGGLVQAGGSLRLSCAASGGTFSSNAMGWYRQAPGKERELVAAISGSGDRTYYADSVKGRFTISRDNAKNTVYLQMNSLKPEDTAVYYCAAEHETGAYYYWGQGTQVTVSS
  polyreactivity (PSR sort gate): high polyreactivity

## QVQLVESGGGLVQAGGSLRLSCAASGGTFSTYAMGWYRQAPGKERELVAAISSTGGSTYYADSVKGRFTISRDNAKNTVYLQMNSLKPEDTAVYYCAAYYSRGWLLYWDEMYYWGQGTQVTVSS
  polyreactivity (PSR sort gate): high polyreactivity

## QVQLVESGGGLVQAGGSLRLSCAASGGTFTFKTMGWYRQAPGKERQLVAAISISGGSTYYADSVKGRFTISRDNAKNTVYLQMNSLKPEDTAVYYCAAQYVRTPSPEYDYWGQGTQVTVSS
  polyreactivity (PSR sort gate): high polyreactivity

## QVQLVESGGGLVQAGGSLRLSCAASGGTFTFYAMGWYRQATGKERELVATINWSGGSTYYADSVKGRFTISRDNAKNTVYLQMNSLKPEDTAVYYCNAAWPYKSVEYWGQGTQVTVSS
  polyreactivity (PSR sort gate): low polyreactivity

## QVQLVESGGGLVQAGGSLRLSCAASGGTFTYYTKGWYRQAPGKERELVAAISTGGRTYYADSVKGRFTISRDNAKNTVYLQMNSLKPEDTAVYYCNADYDETDVLGEFDYWGQGTQVTVSS
  polyreactivity (PSR sort gate): low polyreactivity

## QVQLVESGGGLVQAGGSLRLSCAASGGTFVANTMGWYRQAPGKERELVAAITWSGGRTYYADSVKGRFTISRDNAKNTVYLQMNSLKPEDTAVYYCNADYYRKAESSPEGYDYWGQGTQVTVSS
  polyreactivity (PSR sort gate): high polyreactivity

## QVQLVESGGGLVQAGGSLRLSCAASGGTFVLNAMGWYRQAPGKERELVATISSGGGTDYADSVKGRFTISRDNAKNTVYLQMNSLKPEDTAVYYCNTDYILWGDYDYWGQGTQVTVSS
  polyreactivity (PSR sort gate): low polyreactivity

## QVQLVESGGGLVQAGGSLRLSCAASGGTFVTYAMGWYRQAPGKERELVAAITTGGSTYYADSVKGRFTISRDNAKNSVYLQMISLKPEDTAVYYCAAVYTGSGKRYYKGYYWGQGTQVTVSS
  polyreactivity (PSR sort gate): low polyreactivity

## QVQLVESGGGLVQAGGSLRLSCAASGGTFVVYAMGWYRQAPGKEREFVAGISWGGGRTYYADSVKGRFTISRDNAKNPVYLQMNSLKPEDTAVYYCAVRREIQYYRKFDYWGQGTQVTVSS
  polyreactivity (PSR sort gate): low polyreactivity

## QVQLVESGGGLVQAGGSLRLSCAASGGTFVYNAMGWYRQAPGKERELVAAIRVRGDTTYYADSVKGRFTISRDNAKNTVYLQMNSLKPEDTAVYYCAAYPDYSYYYWGQGTQVTVSS
  polyreactivity (PSR sort gate): high polyreactivity

## QVQLVESGGGLVQAGGSLRLSCAASGGTFVYYAMGWYRQAPGKERELVAAISGSGGRTYYADSVKGRFTISRDNAKNTVYLQMNSLKPEDTAVYFCAAVHLNRYWGQGTQVTVSS
  polyreactivity (PSR sort gate): high polyreactivity

## QVQLVESGGGLVQAGGSLRLSCAASGGTFVYYTMGWYRQAPGKERELVAAISGRGGRTYYADSVKGRFTISRDNAKQTVYLQMNSLKPEDPAVYYCTATQIGPYYLPFDSWGQGTQVTVSS
  polyreactivity (PSR sort gate): high polyreactivity

## QVQLVESGGGLVQAGGSLRLSCAASGGTFWIYAMGWYRQAPGKERELVAGISHGDSTYYADSVKGRFTISRDNAKNTVYLQMNSLKPEDTAVYYCARDYRNPPFAYEYWGQGTQVTVSS
  polyreactivity (PSR sort gate): low polyreactivity

## QVQLVESGGGLVQAGGSLRLSCAASGGTFWKYPMGWTRQAPGKERELVAAITWSGSSTYYADSVKGRFTISRDNAKNTVYLQMNSLKPEDTAVFYCAARYQPRKGAHYGYWGQGTQVTVSS
  polyreactivity (PSR sort gate): high polyreactivity

## QVQLVESGGGLVQAGGSLRLSCAASGGTFWSYAMGLYRQAPGKEREFVAAITTSAGRTNFADSVKGRFTISRDNAKNTFYLQMNSLKPEDTAVYYCAARSAYPGLGYGFDYWGQGTQVTVSS
  polyreactivity (PSR sort gate): low polyreactivity

## QVQLVESGGGLVQAGGSLRLSCAASGGTFYGYAMGWYRQAPGKERELVAASNYRGGRTYYADSVKGRFTISRDNAKNTGYLQMNSLKPEDTAVYYCAATSYRLDGYDYWGQGTQVTVSS
  polyreactivity (PSR sort gate): high polyreactivity

## QVQLVESGGGLVQAGGSLRLSCAASGGTFYHNVMGWYRQAPGKERELVAAIRYSGGRTYYADSVKGRFTISRDNAKNTVYLQMNSQKPEDTAVYYCAVRSYYGPFGYWGQGTQVTVSS
  polyreactivity (PSR sort gate): high polyreactivity

## QVQLVESGGGLVQAGGSLRLSCAASGGTFYHYAMGWYRQAPGKERELVAAISWGGGSTYYADSVKGRFTISRDNAKNTVYLQMNSLKPEHTAVYYCAARRGFRFRDYYWGQGTQVTVSS
  polyreactivity (PSR sort gate): high polyreactivity

## QVQLVESGGGLVQAGGSLRLSCAASGGTFYKYAMGWYRQAPGKERELVAAISRSGGSTYYADSVKGRFTISRDNAKNTVYLQMNSLKPEDTAVYYCNAYGSYWDFDYWGQGTQVTVSS
  polyreactivity (PSR sort gate): high polyreactivity

## QVQLVESGGGLVQAGGSLRLSCAASGGTFYLNAMGWYRQAPGKERELVAAISKRSSTTYYADSVKGRFTISRDNAKNTVYLQMNSLKPEDTAVYYCAAEYFDWWVTYDYWGQGTQVTVSS
  polyreactivity (PSR sort gate): high polyreactivity

## QVQLVESGGGLVQAGGSLRLSCAASGGTFYPYAMGWYREAPGKEWELVAAISTSGGITYYADSVKGRFTISRDNAKNTVYLQMNSLKPEDTAVYYCAKVLRDYYTYYRWQYREFGYWGQGTQVTVSS
  polyreactivity (PSR sort gate): high polyreactivity

## QVQLVESGGGLVQAGGSLRLSCAASGGTFYTNVMGWYRQAPGKERELVAAITRSGGSTHYADSVKGRFTISRDNAKNTVYLQMNSLKPEDTAVYYCAVGSPYYDGMDYWGQGTQVTVSS
  polyreactivity (PSR sort gate): low polyreactivity

## QVQLVESGGGLVQAGGSLRLSCAASGGTFYTYAMGWYRQAPGKERELVAAISRSGGRTYYADSVKGRFTISRDNAKNTVYLQMNSLKPEDTAVYYCAAVRIARAVQDYDYWGQGTQVTVSS
  polyreactivity (PSR sort gate): high polyreactivity
